Laboratory results published in PMC9482650, “Quantitative fragmentomics allow affinity mapping of interactomes” (Nature Communications, 2022).

What was measured:
Test in all cases: holdup assay
Parameters in all cases: key: below the threshold = too weak to quantify, mostly under pKd 3.1 to 4
GRIP1_2, Q9Y3R0 = target: T1, GRIP1_2, Q9Y3R0
T1 sequence (Q9Y3R0 145-248, limits assumed, looked up): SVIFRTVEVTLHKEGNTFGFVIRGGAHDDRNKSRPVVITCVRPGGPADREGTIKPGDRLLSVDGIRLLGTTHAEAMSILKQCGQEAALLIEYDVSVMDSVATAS

GRIP1_5, Q9Y3R0 = target: T2, GRIP1_5, Q9Y3R0
T2 sequence (Q9Y3R0 568-668, limits assumed, looked up): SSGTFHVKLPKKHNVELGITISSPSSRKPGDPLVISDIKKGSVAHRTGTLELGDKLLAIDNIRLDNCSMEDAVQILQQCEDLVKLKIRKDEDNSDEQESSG

DLG4_3, P78352 = target: DLG4_3, P78352
DLG4_3, P78352, sequence (P78352 306-403): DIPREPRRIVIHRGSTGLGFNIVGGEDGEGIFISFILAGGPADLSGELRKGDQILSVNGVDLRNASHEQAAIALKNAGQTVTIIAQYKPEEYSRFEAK

LIN7C, Q9NUP9 = target: T3, LIN7C, Q9NUP9
T3 sequence (Q9NUP9 88-185, limits assumed, looked up): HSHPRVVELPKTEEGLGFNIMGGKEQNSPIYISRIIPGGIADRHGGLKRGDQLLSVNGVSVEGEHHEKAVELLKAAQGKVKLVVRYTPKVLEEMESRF

MPP7, Q5T2T1 = target: T4, MPP7, Q5T2T1
T4 sequence (Q5T2T1 134-230, limits assumed, looked up): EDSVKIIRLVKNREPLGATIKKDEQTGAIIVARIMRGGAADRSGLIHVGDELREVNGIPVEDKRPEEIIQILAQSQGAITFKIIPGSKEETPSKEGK

MAGI2_2, Q86UL8 = target: MAGI2_2, Q86UL8
MAGI2_2, Q86UL8, sequence (Q86UL8 410-522): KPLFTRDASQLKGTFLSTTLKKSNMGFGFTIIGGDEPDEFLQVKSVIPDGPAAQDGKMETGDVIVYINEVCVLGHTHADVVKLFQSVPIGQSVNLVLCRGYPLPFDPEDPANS

LAP2, Q96RT1 = target: LAP2, Q96RT1
LAP2, Q96RT1, sequence (Q96RT1 other isoform, or with tags, fused parts or gaps): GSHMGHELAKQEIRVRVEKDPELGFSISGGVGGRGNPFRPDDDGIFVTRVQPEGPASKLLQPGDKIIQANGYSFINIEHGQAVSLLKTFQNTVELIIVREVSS

SCRIB_1, Q14160 = target: SCRIB_1, Q14160
SCRIB_1, Q14160, sequence (Q14160 718-814): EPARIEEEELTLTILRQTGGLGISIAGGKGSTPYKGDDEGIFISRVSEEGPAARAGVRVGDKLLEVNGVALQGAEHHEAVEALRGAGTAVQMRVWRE

TJP3_3, O95049 = target: T5, TJP3_3, O95049
T5 sequence (O95049 375-456, limits assumed, looked up): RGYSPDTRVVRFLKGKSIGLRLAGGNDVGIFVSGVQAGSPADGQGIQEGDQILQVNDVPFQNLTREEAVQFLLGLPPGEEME

MAGI2_4, Q86UL8 = target: MAGI2_4, Q86UL8
MAGI2_4, Q86UL8, sequence (Q86UL8 772-865): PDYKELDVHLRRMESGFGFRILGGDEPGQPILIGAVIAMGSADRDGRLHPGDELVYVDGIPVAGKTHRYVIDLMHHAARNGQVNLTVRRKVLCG

APBA1_2, Q02410 = target: T6, APBA1_2, Q02410
T6 sequence (Q02410 742-832, limits assumed, looked up): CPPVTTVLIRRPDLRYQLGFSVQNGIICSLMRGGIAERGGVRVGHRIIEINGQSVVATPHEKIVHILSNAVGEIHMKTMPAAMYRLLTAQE

AHNAK1, Q09666 = target: AHNAK1, Q09666
AHNAK1, Q09666, sequence (Q09666 4-100): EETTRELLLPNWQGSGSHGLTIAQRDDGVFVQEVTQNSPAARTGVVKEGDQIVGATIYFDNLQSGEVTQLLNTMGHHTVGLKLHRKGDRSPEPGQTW

HTRA2, O43464 = target: HTRA2, O43464
HTRA2, O43464, sequence (O43464 355-458): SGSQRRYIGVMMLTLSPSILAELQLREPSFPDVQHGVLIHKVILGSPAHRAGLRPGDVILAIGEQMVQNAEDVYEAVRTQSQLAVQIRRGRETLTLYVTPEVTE

GRIP2_3, Q9C0E4 = target: GRIP2_3, Q9C0E4
GRIP2_3, Q9C0E4, sequence (Q9C0E4 238-339): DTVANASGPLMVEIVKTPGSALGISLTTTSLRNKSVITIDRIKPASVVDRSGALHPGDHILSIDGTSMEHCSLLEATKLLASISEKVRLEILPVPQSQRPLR

GRID2IP_1, A4D2P6 = target: GRID2IP_1, A4D2P6
GRID2IP_1, A4D2P6, sequence (A4D2P6 1-87): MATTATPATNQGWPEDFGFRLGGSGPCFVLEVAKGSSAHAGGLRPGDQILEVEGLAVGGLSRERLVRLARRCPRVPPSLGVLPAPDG

GRIP1_3, Q9Y3R0 = target: T7, GRIP1_3, Q9Y3R0
T7 sequence (Q9Y3R0 247-346, limits assumed, looked up): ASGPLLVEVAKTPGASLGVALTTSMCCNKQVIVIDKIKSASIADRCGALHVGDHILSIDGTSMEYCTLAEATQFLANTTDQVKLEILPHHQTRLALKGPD

GRIP2_7, Q9C0E4 = target: GRIP2_7, Q9C0E4
GRIP2_7, Q9C0E4, sequence (Q9C0E4 934-1023): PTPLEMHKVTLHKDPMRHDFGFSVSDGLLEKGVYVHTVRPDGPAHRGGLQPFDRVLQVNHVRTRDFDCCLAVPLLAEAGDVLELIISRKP

TJP2_1, Q9UDY2 = target: TJP2_1, Q9UDY2
TJP2_1, Q9UDY2, sequence (Q9UDY2 24-128): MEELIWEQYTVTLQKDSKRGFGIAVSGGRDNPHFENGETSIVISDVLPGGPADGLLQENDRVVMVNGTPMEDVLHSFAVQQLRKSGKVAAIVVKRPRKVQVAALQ

DFNB31_3, Q9P202 = target: T8, DFNB31_3, Q9P202
T8 sequence (Q9P202 811-907, limits assumed, looked up): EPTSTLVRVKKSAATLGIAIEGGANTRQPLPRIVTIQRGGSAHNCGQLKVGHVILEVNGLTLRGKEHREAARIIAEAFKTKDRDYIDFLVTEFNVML

SNX27, Q96L92 = target: SNX27, Q96L92
CARD11, Q9BXL7 = target: T9, CARD11, Q9BXL7
T9 sequence (Q9BXL7 662-765, limits assumed, looked up): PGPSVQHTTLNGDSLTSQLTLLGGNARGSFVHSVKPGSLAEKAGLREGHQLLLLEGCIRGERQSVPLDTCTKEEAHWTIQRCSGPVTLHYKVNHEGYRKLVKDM

DLG1_3, Q12959 = target: DLG1_3, Q12959
DLG1_3, Q12959, sequence (Q12959 457-571): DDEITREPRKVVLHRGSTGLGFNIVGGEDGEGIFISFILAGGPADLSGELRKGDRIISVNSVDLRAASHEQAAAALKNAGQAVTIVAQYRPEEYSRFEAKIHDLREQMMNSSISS

FRMPD3, Q5JV73 = target: FRMPD3, Q5JV73
FRMPD3, Q5JV73, sequence (Q5JV73 12-100): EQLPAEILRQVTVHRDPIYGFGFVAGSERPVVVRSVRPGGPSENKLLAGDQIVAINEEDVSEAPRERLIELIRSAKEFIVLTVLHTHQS

GORASP2, Q9H8Y8 = target: GORASP2, Q9H8Y8
SCRIB_2, Q14160 = target: SCRIB_2, Q14160
SCRIB_2, Q14160, sequence (Q14160 857-960): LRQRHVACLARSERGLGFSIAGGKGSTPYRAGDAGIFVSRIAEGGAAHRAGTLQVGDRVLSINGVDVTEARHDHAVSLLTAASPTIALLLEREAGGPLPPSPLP

PDZRN4_1, Q6ZMN7 = target: PDZRN4_1, Q6ZMN7
PDZRN4_1, Q6ZMN7, sequence (Q6ZMN7 213-318): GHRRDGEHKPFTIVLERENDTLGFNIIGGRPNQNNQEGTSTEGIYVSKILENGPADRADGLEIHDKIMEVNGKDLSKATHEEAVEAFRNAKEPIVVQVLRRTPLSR

SYNJ2BP, P57105 = target: T10, SYNJ2BP, P57105
T10 sequence (P57105 8-110, limits assumed, looked up): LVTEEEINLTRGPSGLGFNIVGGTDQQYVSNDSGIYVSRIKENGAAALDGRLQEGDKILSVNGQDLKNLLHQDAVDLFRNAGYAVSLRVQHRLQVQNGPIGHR

[1] = plain residues with an end cap or a label only (N-terminal biotin on a linker: ado-ado)
[2] = modified: phospho on T at position -2 from the C-terminal residue

B1: CCDC134, Q9H6E4 (peptide)
chain: PRISRSQSEL
- pKd (GRIP1_2, Q9Y3R0; [1]): below the threshold
- pKd (GRIP1_5, Q9Y3R0; [1]): below the threshold
- pKd (DLG4_3, P78352; [1]): below the threshold
- pKd (LIN7C, Q9NUP9; [1]): below the threshold
- pKd (MPP7, Q5T2T1; [1]): below the threshold
- pKd (MAGI2_2, Q86UL8; [1]): 3.85
- pKd (LAP2, Q96RT1; [1]): below the threshold
- pKd (SCRIB_1, Q14160; [1]): below the threshold
- pKd (TJP3_3, O95049; [1]): below the threshold
- pKd (MAGI2_4, Q86UL8; [1]): below the threshold
- pKd (APBA1_2, Q02410; [1]): below the threshold
- pKd (AHNAK1, Q09666; [1]): below the threshold
- pKd (HTRA2, O43464; [1]): below the threshold
- pKd (GRIP2_3, Q9C0E4; [1]): below the threshold
- pKd (GRID2IP_1, A4D2P6; [1]): below the threshold
- pKd (GRIP1_3, Q9Y3R0; [1]): below the threshold
- pKd (GRIP2_7, Q9C0E4; [1]): below the threshold
- pKd (TJP2_1, Q9UDY2; [1]): below the threshold
- pKd (DFNB31_3, Q9P202; [1]): 3.48
- pKd (SNX27, Q96L92; [1]): below the threshold
- pKd (CARD11, Q9BXL7; [1]): below the threshold
- pKd (DLG1_3, Q12959; [1]): below the threshold
- pKd (FRMPD3, Q5JV73; [1]): below the threshold
- pKd (GORASP2, Q9H8Y8; [1]): below the threshold
- pKd (SCRIB_2, Q14160; [1]): below the threshold
- pKd (PDZRN4_1, Q6ZMN7; [1]): below the threshold
- pKd (SYNJ2BP, P57105; [1]): 4.09

B2: NLGN2, Q8NFZ4 (peptide)
chain: LPHPHSTTRV
- pKd (GRIP1_2, Q9Y3R0; [1]): below the threshold
- pKd (GRIP1_5, Q9Y3R0; [1]): below the threshold
- pKd (DLG4_3, P78352; [1]): 3.82
- pKd (LIN7C, Q9NUP9; [1]): below the threshold
- pKd (MPP7, Q5T2T1; [1]): below the threshold
- pKd (MAGI2_2, Q86UL8; [1]): 4.93
- pKd (LAP2, Q96RT1; [1]): below the threshold
- pKd (SCRIB_1, Q14160; [1]): below the threshold
- pKd (TJP3_3, O95049; [1]): below the threshold
- pKd (MAGI2_4, Q86UL8; [1]): 3.72
- pKd (APBA1_2, Q02410; [1]): below the threshold
- pKd (AHNAK1, Q09666; [1]): below the threshold
- pKd (HTRA2, O43464; [1]): below the threshold
- pKd (GRIP2_3, Q9C0E4; [1]): 3.52
- pKd (GRID2IP_1, A4D2P6; [1]): below the threshold
- pKd (GRIP1_3, Q9Y3R0; [1]): below the threshold
- pKd (GRIP2_7, Q9C0E4; [1]): below the threshold
- pKd (TJP2_1, Q9UDY2; [1]): 3.97
- pKd (DFNB31_3, Q9P202; [1]): below the threshold
- pKd (SNX27, Q96L92; [1]): 5.41
- pKd (CARD11, Q9BXL7; [1]): below the threshold
- pKd (DLG1_3, Q12959; [1]): 4.13
- pKd (FRMPD3, Q5JV73; [1]): below the threshold
- pKd (GORASP2, Q9H8Y8; [1]): 3.92
- pKd (SCRIB_2, Q14160; [1]): below the threshold
- pKd (PDZRN4_1, Q6ZMN7; [1]): below the threshold
- pKd (SYNJ2BP, P57105; [1]): 3.84

B3: HPV18-E6_-2P, P06463 (peptide)
chain: RLQRRRETQV
- pKd (GRIP1_2, Q9Y3R0; [2]): below the threshold
- pKd (GRIP1_5, Q9Y3R0; [2]): below the threshold
- pKd (DLG4_3, P78352; [2]): 3.51
- pKd (LIN7C, Q9NUP9; [2]): 4.07
- pKd (MPP7, Q5T2T1; [2]): below the threshold
- pKd (MAGI2_2, Q86UL8; [2]): below the threshold
- pKd (LAP2, Q96RT1; [2]): below the threshold
- pKd (SCRIB_1, Q14160; [2]): below the threshold
- pKd (TJP3_3, O95049; [2]): below the threshold
- pKd (MAGI2_4, Q86UL8; [2]): below the threshold
- pKd (APBA1_2, Q02410; [2]): below the threshold
- pKd (AHNAK1, Q09666; [2]): below the threshold
- pKd (HTRA2, O43464; [2]): below the threshold
- pKd (GRIP2_3, Q9C0E4; [2]): below the threshold
- pKd (GRID2IP_1, A4D2P6; [2]): below the threshold
- pKd (GRIP1_3, Q9Y3R0; [2]): below the threshold
- pKd (GRIP2_7, Q9C0E4; [2]): below the threshold
- pKd (TJP2_1, Q9UDY2; [2]): below the threshold
- pKd (DFNB31_3, Q9P202; [2]): 3.9
- pKd (SNX27, Q96L92; [2]): 3.61
- pKd (CARD11, Q9BXL7; [2]): below the threshold
- pKd (DLG1_3, Q12959; [2]): below the threshold
- pKd (FRMPD3, Q5JV73; [2]): below the threshold
- pKd (GORASP2, Q9H8Y8; [2]): 4.13
- pKd (SCRIB_2, Q14160; [2]): below the threshold
- pKd (PDZRN4_1, Q6ZMN7; [2]): below the threshold
- pKd (SYNJ2BP, P57105; [2]): below the threshold

B4: LPXN, O60711 (peptide)
chain: QPCFNKLFPL
- pKd (GRIP1_2, Q9Y3R0; [1]): below the threshold
- pKd (GRIP1_5, Q9Y3R0; [1]): below the threshold
- pKd (DLG4_3, P78352; [1]): below the threshold
- pKd (LIN7C, Q9NUP9; [1]): below the threshold
- pKd (MPP7, Q5T2T1; [1]): 4.05
- pKd (MAGI2_2, Q86UL8; [1]): below the threshold
- pKd (LAP2, Q96RT1; [1]): below the threshold
- pKd (SCRIB_1, Q14160; [1]): below the threshold
- pKd (TJP3_3, O95049; [1]): below the threshold
- pKd (MAGI2_4, Q86UL8; [1]): below the threshold
- pKd (APBA1_2, Q02410; [1]): 3.63
- pKd (AHNAK1, Q09666; [1]): below the threshold
- pKd (HTRA2, O43464; [1]): 4.1
- pKd (GRIP2_3, Q9C0E4; [1]): below the threshold
- pKd (GRID2IP_1, A4D2P6; [1]): below the threshold
- pKd (GRIP1_3, Q9Y3R0; [1]): below the threshold
- pKd (GRIP2_7, Q9C0E4; [1]): 3.69
- pKd (TJP2_1, Q9UDY2; [1]): below the threshold
- pKd (DFNB31_3, Q9P202; [1]): below the threshold
- pKd (SNX27, Q96L92; [1]): 3.75
- pKd (CARD11, Q9BXL7; [1]): below the threshold
- pKd (DLG1_3, Q12959; [1]): below the threshold
- pKd (FRMPD3, Q5JV73; [1]): below the threshold
- pKd (GORASP2, Q9H8Y8; [1]): 4
- pKd (SCRIB_2, Q14160; [1]): below the threshold
- pKd (PDZRN4_1, Q6ZMN7; [1]): below the threshold
- pKd (SYNJ2BP, P57105; [1]): below the threshold
